What was measured:
[1] = total CRMP2 western blot, brain lysate; settings: glycan lost; control: wild-type mice
[2] = P509/514-CRMP2 antibody western blot, brain lysate; settings: glycan lost; control: wild-type mice
[3] = histology, lateral and third ventricles; settings: glycan lost; control: wild-type littermates
[4] = maximum speed, NOR test phase; settings: glycan lost; control: wild-type littermates
open-field test = settings: glycan lost; control: wild-type littermates
[5] = 3F4 (P509/514/518/522) antibody western blot, brain lysate; settings: glycan lost; control: wild-type mice
[6] = distance travelled, NOR test phase; settings: glycan lost; control: wild-type littermates
[7] = histology, four points along cortex; settings: glycan lost; control: wild-type littermates
[8] = spontaneous alternation, enclosed plus maze; settings: glycan lost; control: wild-type littermates

## CRMP2: Crmp2S517A
[1]
  expression_or_secretion: no change
[2]
  other: CRMP2 phosphorylation at GSK3β sites: no change
[3]
  other: brain ventricular volume, other: volume: no change, 4.160 ± 1.252 vs 3.592 ± 1.155
[4]
  other: locomotion during NOR test phase, other: speed: decreases, 0.124 ± 0.017 vs 0.145 ± 0.027
open-field test
  other: anxiety and locomotor activity: no change
[5]
  other: CRMP2 phosphorylation at GSK3β sites: no change
[6]
  other: locomotion during NOR test phase, other: distance: decreases, 9.4 ± 2.0 vs 12.8 ± 3.4
[7]
  other: cortical thickness, other: thickness: no change, 1127 ± 93.24 vs 1197 ± 175.4
[8]
  other: spatial working memory: no change
